The values that follow are results of earlier work, collected in publication PMC4221657.

By Kd is commonly meant the equilibrium constant for the complex coming apart.

Data set [1] deals with VPAC1 receptor (Homo sapiens) (UniProt P32241).
The target in data set [2] is VPAC2 receptor (Homo sapiens) (UniProt P41587).
For data set [3], the target named is PAC1 receptor (Homo sapiens) (UniProt P41586).
Sequence of UniProt P41586 (P41586 21-468): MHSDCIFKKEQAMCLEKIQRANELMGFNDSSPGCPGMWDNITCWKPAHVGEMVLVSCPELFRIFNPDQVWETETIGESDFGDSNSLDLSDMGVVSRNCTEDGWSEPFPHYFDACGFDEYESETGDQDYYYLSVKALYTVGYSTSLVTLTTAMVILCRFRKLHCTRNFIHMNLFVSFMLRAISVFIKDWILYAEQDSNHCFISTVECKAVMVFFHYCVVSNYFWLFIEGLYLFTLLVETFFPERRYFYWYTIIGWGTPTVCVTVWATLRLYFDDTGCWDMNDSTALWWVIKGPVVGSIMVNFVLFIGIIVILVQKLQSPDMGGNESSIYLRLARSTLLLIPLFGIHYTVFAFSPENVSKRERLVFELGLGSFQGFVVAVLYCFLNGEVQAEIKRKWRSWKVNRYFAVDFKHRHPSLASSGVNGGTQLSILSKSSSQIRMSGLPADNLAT

Sequence of UniProt P41587 (P41587 24-438): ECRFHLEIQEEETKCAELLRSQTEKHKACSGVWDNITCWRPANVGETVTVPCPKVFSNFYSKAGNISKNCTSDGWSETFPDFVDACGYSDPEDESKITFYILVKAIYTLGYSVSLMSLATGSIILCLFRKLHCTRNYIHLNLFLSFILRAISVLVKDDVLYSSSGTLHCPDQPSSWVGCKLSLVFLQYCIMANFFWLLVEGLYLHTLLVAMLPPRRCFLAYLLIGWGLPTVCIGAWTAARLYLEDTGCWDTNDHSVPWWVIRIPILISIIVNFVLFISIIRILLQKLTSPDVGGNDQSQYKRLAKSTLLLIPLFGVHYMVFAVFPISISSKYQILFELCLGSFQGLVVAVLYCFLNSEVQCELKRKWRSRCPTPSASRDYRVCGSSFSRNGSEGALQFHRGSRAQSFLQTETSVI
Sequence of UniProt P32241 (P32241 31-457): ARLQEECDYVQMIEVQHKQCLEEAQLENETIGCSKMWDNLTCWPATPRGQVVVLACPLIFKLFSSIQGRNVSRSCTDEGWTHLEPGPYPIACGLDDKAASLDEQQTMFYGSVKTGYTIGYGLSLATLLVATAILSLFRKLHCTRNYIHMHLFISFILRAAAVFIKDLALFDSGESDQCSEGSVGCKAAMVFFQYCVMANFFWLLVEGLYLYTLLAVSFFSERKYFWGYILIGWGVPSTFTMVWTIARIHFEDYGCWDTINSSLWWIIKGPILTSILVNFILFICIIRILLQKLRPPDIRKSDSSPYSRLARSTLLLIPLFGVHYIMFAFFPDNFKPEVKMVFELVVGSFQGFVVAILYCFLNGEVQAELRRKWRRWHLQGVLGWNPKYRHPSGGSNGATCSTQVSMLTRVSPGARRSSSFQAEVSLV

For the substance PACAP38 (from UniProt P18509), the figures for the dissociation constant Kd in data set [1], in data set [2] and in data set [3] were 1 nM, 1 nM and 0.5 nM, respectively.
